The text below walks through data of IntAct's records for PubMed 21572435.

Sequences and labels used below:
B1: ETS translocation variant 1 (Homo sapiens), P50549-1 (parent)
chain: MDGFYDQQVPYMVTNSQRGRNCNEKPTNVRKRKFINRDLAHDSEELFQDLSQLQETWLAEAQVPDNDEQFVPDYQAESLAFHGLPLKIKKEPHSPCSEISSACSQEQPFKFSYGEKCLYNVSAYDQKPQVGMRPSNPPTPSSTPVSPLHHASPNSTHTPKPDRAFPAHLPPSQSIPDSSYPMDHRFRRQLSEPCNSFPPLPTMPREGRPMYQRQMSEPNIPFPPQGFKQEYHDPVYEHNTMVGSAASQSFPPPLMIKQEPRDFAYDSEVPSCHSIYMRQEGFLAHPSRTEGCMFEKGPRQFYDDTCVVPEKFDGDIKQEPGMYREGPTYQRRGSLQLWQFLVALLDDPSNSHFIAWTGRGMEFKLIEPEEVARRWGIQKNRPAMNYDKLSRSLRYYYEKGIMQKVAGERYVYKFVCDPEALFSMAFPDNQRPLLKTDMERHINEEDTVPLSHFDESMAYMPEGGCCNPHPYNEGYVY

In the experiment the parent is B1. The settings on record: with COP1, Q8NHY2-1.
Sequence of COP1, Q8NHY2-1 (Q8NHY2 whole entry): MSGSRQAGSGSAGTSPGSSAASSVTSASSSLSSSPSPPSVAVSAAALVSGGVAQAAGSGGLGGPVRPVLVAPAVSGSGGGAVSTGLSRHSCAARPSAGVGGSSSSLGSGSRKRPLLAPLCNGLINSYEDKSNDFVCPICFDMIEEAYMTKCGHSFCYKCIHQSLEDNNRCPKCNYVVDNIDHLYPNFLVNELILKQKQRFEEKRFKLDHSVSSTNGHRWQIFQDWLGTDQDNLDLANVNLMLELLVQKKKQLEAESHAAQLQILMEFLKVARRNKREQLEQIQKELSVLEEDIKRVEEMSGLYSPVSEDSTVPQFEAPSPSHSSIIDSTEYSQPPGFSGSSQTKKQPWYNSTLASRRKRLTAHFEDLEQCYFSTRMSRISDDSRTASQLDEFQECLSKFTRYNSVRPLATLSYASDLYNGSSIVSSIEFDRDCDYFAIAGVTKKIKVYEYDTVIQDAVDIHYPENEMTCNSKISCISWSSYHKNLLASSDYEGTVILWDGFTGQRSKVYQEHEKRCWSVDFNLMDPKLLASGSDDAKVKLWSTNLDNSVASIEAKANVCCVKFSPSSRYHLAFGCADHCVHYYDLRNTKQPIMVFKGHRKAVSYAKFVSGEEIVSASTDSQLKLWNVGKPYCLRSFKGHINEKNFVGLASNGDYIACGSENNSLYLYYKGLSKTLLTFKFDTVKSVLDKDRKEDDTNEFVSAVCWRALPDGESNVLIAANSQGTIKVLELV
Consider V71A;P72A, for which the “effect of a mutation on the interaction” value is “decreasing interaction”.
Regarding V63A;P64A;V71A;P72A, the “effect of a mutation on the interaction” value was “decreasing interaction”.
